The IC50 is the concentration that gives 50% inhibition. A high value points to a need for much substance.

The labels stand for the following.
B1: PINT-11A11 IgG (antibody, V domains shown)
VH: QVQLVESGGGLVKPGGSLRLSCAASGFTFSSHTMNWVRQAQGKGLEWVSSISGSGRYIYYSDSVKGRFTISRDAAKNSLYLQMNNLRAEDTAVYYCTRAKFGDYLFDSWGQGTLVTVSS
VL: LNFMLTQPHSVSQSPGKTVTISCTRSSGRIASNFVQWYQQRPGSAPTTVIYEDNRRPSGVPDRFSGSIDSSSNSASLTISGLKTEDEADYYCQSYDARYQVFGTGTKVTVLG
B2: PINT-11A12 IgG (antibody, V domains shown)
VH: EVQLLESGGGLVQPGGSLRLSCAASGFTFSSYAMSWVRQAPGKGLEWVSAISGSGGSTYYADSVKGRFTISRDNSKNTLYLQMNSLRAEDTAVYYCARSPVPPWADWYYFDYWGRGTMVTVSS
VL: AQAVLTQPSSVSGAPGQRVTISCTGSRSNFGAGYDVHWYQQFPGTAPKLLIYGNTNRPSGVPDRFSGSRSGTSASLAITGLQAEDEADYYCQSYDSNLSGSVFGGGTKVTVLG
B3: PINT-11A7 IgG (antibody, V domains shown)
VH: EVQLVQSGAEVKKPGASVKVSCKASGYSFTNYGLDWVRQAPGQGLEWMGWISPYTGYTNYAQKFQGRVTMTTDKSTSTAYMDLRSLRSDDTAVYYCAREIFSHCTGGSCYPFDSWGRGTMVTVSS
VL: LSSELTQDPAVSVALGQTVRITCQGDSLRSYYASWYQQKPGQAPVLVIYGKNNRPSGIPDRFSGSSSGNTASLTITGAQAEDEADYYCNSRDSSGNHRNWVFGGGTKVTVLG
B4: PINT-12A1 IgG (antibody, V domains shown)
VH: B3 VH with D35N, R117K, M120L
VL: LSSELTQDPAVSVALGQTVRITCQGDSLRNYYASWYQQKPGQAPVLVLYSKNSRPSGVPDRFSGSSSGTTASLTISGAQAEDEADYYCNSRDTSGDLRWVFGGGTKLTVLG
notes: see recheck
B5: PINT-12A3 IgG (antibody, V domains shown)
VH: B3 VH with E1Q, D35N, T72S, V93I, T105S, S114Y, R117Q, M120L
VL: B3 VL with V45L, K51R, G95T, R98G, K107Q, V108L, G112S
B6: PINT-11A5 IgG (antibody, V domains shown)
VH: B3 VH with E1Q, D35N, R117K, M120L
VL: LSSELTQDPAVSVALGQTVRITCQGDSLRSYYASWYQQKPGQAPVLVIYGKNNRPSGIPDRFSGSSSGNTASLTITGAQAEDEADYYCNSRDSSGNHHWVFGGGTKVTVLG
B7: PINT-12A4 IgG (antibody, V domains shown)
VH: B3 VH with E1Q, D35N
VL: B6 VL with H97L, H98N, K106Q, V107L, G111S
B8: PINT-12A2 IgG (antibody, V domains shown)
VH: B3 VH with D35N, R117Q, M120L
VL: LSSELTQDPAVSVALGQTVRITCQGDSLRNYYASWYQQKPGQAPLLVMFGKNNRPSEIPGRFSGSSSGNTASLTITGAQAEDEADYYCNSRDSNSHQWVFGGGTKLTVLG
B9: PINT-7A2 IgG (antibody, V domains shown)
VH: GVQLVQSGAEVKKPGESLTISCKGSGYNFFNYWIGWVRQMPGKGLEWMGIIYPTDSDTRYSPSFQGQVTISVDKSISTAYLQWSSLKASDTAMYYCARSIRYCPGGRCYSGYYGMDVWGQGTMVTVSS
VL: SELTQDPAVSVALGQTVRITCQGDSLRSYYTNWFQQKPGQAPLLVVYAKNKRPSGIPDRFSGSSSGNTASLTITGAQAEDEADYYCNSRDSSGNHVVFGGGTKLTVLG
B10: PINT-7A6 IgG (antibody, V domains shown)
VH: B9 VH with G1E, M123L
VL: B9 VL
B11: PINT-11A2 IgG (antibody, V domains shown)
VH: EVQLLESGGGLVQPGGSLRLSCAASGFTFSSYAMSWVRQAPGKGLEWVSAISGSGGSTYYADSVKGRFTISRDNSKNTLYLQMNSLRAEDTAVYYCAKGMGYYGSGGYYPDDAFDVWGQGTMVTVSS
VL: LSSELTQDPDVSMALGQTVTISCRGDSLKRFYASWYHQKPGQAPVLVFYGKENRPSGIPDRFSGSDSGDTASLTITGAQAEDEGDYYCHTQDTSARQYVFGSGTKVTVLG
B12: PINT-11A1 IgG (antibody, V domains shown)
VH: EVQLVESGGGVVQPGRSLRLSCAASGFTFSDFAMHWVRQIPGKGLEWLSGLRHDGSTAYYAGSVKGRFTISRDNSRNTVYLQMNSLRAEDTATYYCVTGSGSSGPHAFPVWGKGTLVTVSS
VL: not shown
B13: PINT-11A3 IgG (antibody, V domains shown)
VH: B3 VH with D35N, M120L
VL: B8 VL with S93R

Substitutions are numbered along the chain they refer to. Where “and” joins values, the source holds several entries; their conditions need not be identical. Equal entries are not always repeated.

The first assay has as its target T1, human insulin receptor on CHO cells (human, UniProt P06213 28-1382).
T1 construct: whole, on cells
As to the kind of experiment: competition with 125I-insulin, CHO cells expressing human insulin receptor, 4 C. On the procedure:
The Parental 3T3 cells were used as a control for background radioactivity. We then incubated the plates at 37° C., 5% CO₂ for 24 hours to allow cells to attach and become 80-90% confluent. The media was decanted from the plates, replaced with 500 μl per well of starvation or assay media consisting of IMDM, 20 mM Hepes (Gibco, #15630-080), 2 mM L-glutamine and 0.1% bovine serum albumin (Equitech-Bio, protease-free, Kerryville, Tex.) and the plates were incubated at 37° C., 5% CO₂ overnight. The antibodies were diluted in cold assay media to the desired final concentration and added 100 μl per well. All samples were performed in duplicate. The plates were incubated at 4° C. for 30 minutes. […] The plates were incubated for 2.5 hours at 4° C., then aspirated the media and washed 3× with cold DPBS (Gibco, #14040-117). The cells were lysed by adding 500 μl 0.2 NaOH, 2% SDS and incubating the plates for 15 minutes at 60° C. The samples were transferred to 12×75 tubes (Sarsted, #55.476, 5 ml) and the signal read on a gamma counter.
In turn, B1 registered an IC50 of more than 200 nM.

In the case of B2, the IC50 was more than 200 nM.

B3: the IC50 was more than 200 nM.

In turn, B4 registered an IC50 of more than 200 nM.

On to B5, for which the IC50 was more than 200 nM.

B6 registered an IC50 of more than 200 nM.

B7: the IC50 was more than 200 nM.

Consider B8, for which the IC50 is more than 200 nM.

Another assay deals with T2, human IGF-I receptor on cells (NIH-3T3 fibroblasts expressing the human IGF-IR; DU145 cells) (human, UniProt P08069 31-1367). As to the kind of experiment: cell-based or functional assay.
For the molecule B1, the “Antagonist Assay IC50 (nM), IGF-I-induced IGF-1R tyrosine phosphorylation (ELISA)” value (“Antagonist Assay IC50 (nM)” below) was 14.9 nM and 10.6 nM.

Consider B9, for which the “Antagonist Assay IC50 (nM)” value was 2.62 nM and 1.97 nM.

On to B10, for which the “Antagonist Assay IC50 (nM)” value was 9.7 nM and 8.5 nM.

In the case of B11, the “Antagonist Assay IC50 (nM)” value was more than 40 nM.

Regarding B2, the “Antagonist Assay IC50 (nM)” value is more than 40 nM.

Regarding B12, the “Antagonist Assay IC50 (nM)” value was 5.4 nM and 7.4 nM.

Take B3: the “Antagonist Assay IC50 (nM)” value was 26.6 nM and > 40 nM and 25.5 nM.

As to B4, the “Antagonist Assay IC50 (nM)” value was more than 40 nM.

As for B5, the “Antagonist Assay IC50 (nM)” value was more than 40 nM.

B6: the “Antagonist Assay IC50 (nM)” value is more than 40 nM.

Consider B7, for which the “Antagonist Assay IC50 (nM)” value is more than 40 nM.

As to B8, the “Antagonist Assay IC50 (nM)” value was more than 40 nM.

Another assay has as its target T2, human IGF-I receptor on cells (NIH-3T3 …). Briefly: competition with 125I-IGF-I, NIH-3T3 cells expressing human IGF-1R, 4 C. On the procedure: (§1) NIH-3T3 fibroblasts expressing the human IGF-IR, or NIH-3T3 non-transfected fibroblasts were plated at 6×10⁴ cells per well in 0.5 ml of DMEM (Gibco, #11960-044) supplemented with 10% heat-inactivated fetal bovine serum (Gibco, #16140-071), 2 mM L-glutamine (Gibco, #25030-081) and 50 U/ml penicillin-streptomycin (Gibco, #15070-063). The NIH-3T3 cells were used as a control for non-specific cell binding. The plates were incubated at 37° C./5% CO₂ for 24 hours to allow cells to attach and become 80-90% confluent. The overlying media was then replaced with 0.5 ml per well of starvation media consisting of DMEM, 20 mM Hepes (Gibco, #15630-080), 2 mM L-glutamine and 0.1% bovine serum albumin (Equitech-Bio, protease-free, Kerrville, Tex.) and the plates were incubated at 37° C., 5% CO₂ overnight. All subsequent binding steps were conducted at 4° C. Test antibodies were diluted in ice-cold starvation media to the desired final concentration and 100 μl added per well. All samples were performed in duplicate. […] Cell monolayers were washed three times with ice-cold PBS (Gibco, #14040-117) and cells and associated radioactivity were released by adding 0.5ml 2% sodium dodecyl sulfate/0.2N NaOH to each well and heating the plates at 60° C. for 15 minutes. Lysate associated radioactivity was quantitated by gamma scintillation spectrometry. Alternatively, the same described experiment was performed with preincubation with the test antibodies at 37° C. for 10 minutes, followed by 10 minutes incubation at 37° C. after addition of 400 pM of the iodinated radioligand.
B1: the IC50 was 1.6 nM.

In the case of B9, the IC50 was 0.5 nM and 1.3 nM.

As for B10, the IC50 was 1 nM and 0.8 nM.

Molecule B11 came in with an IC50 of more than 100 nM.

Take B12: the IC50 is 8 nM and 10 nM.

For B13, the half-inhibitory concentration (IC50) is 1.1 nM and 1.2 nM.

As for B3, the IC50 was 1 nM and 1.4 nM.

With B4, the IC50 is 1.5 nM and 1.2 nM.

As for B5, the IC50 is 1.5 nM and 1.7 nM.

For the molecule B6, the IC50 is 1.2 nM and < 0.4 nM and 0.75 nM.

Molecule B7 showed an IC50 of more than 50 nM.

Regarding B8, the IC50 is 1 nM and 0.7 nM.

The next assay has the same target. Briefly: competition with 125I-IGF-II, NIH-3T3 cells expressing human IGF-1R, 4 C. On the procedure: as §1
Take B9: the IC50 is < 0.8 nM and 0.4 nM.

Take B10: the IC50 is < 0.8 nM and 0.3 nM.

In turn, B12 showed an IC50 of more than 75 nM.

For a further assay the target is unchanged. Briefly: cell-based or functional assay. This is another data set of the same source.
Take B1: the “IC50 (nM), IGF-1 dependent proliferation of NIH-3T3/hIGF-1R cells (BrdU ELISA)” value (“IC50 … of NIH-3T3/hIGF-1R cells (BrdU ELISA)” below) is 16.4 nM and 25 nM.

As for B9, the “IC50 … of NIH-3T3/hIGF-1R cells (BrdU ELISA)” value is 5 nM and 3.8 nM.

B10: the “IC50 … of NIH-3T3/hIGF-1R cells (BrdU ELISA)” value is more than 70 nM.

In the case of B11, the “IC50 … of NIH-3T3/hIGF-1R cells (BrdU ELISA)” value was more than 70 nM.

Regarding B2, the “IC50 … of NIH-3T3/hIGF-1R cells (BrdU ELISA)” value is more than 70 nM.

As for B12, the “IC50 … of NIH-3T3/hIGF-1R cells (BrdU ELISA)” value is 5.4 nM and 3.3 nM.

Take B13: the “IC50 … of NIH-3T3/hIGF-1R cells (BrdU ELISA)” value was 32.1 nM and > 70 nM.

As to B3, the “IC50 … of NIH-3T3/hIGF-1R cells (BrdU ELISA)” value was more than 70 nM.

As for B4, the “IC50 … of NIH-3T3/hIGF-1R cells (BrdU ELISA)” value was more than 70 nM.

Turning to B5, the “IC50 … of NIH-3T3/hIGF-1R cells (BrdU ELISA)” value was more than 70 nM.

On to B6, for which the “IC50 … of NIH-3T3/hIGF-1R cells (BrdU ELISA)” value is more than 70 nM.

B7: the “IC50 … of NIH-3T3/hIGF-1R cells (BrdU ELISA)” value is more than 70 nM.

On to B8, for which the “IC50 … of NIH-3T3/hIGF-1R cells (BrdU ELISA)” value was more than 70 nM.

These data come from patent US20040202655A1 (published 2004).
